Assay results: patent publication US20120117670A1 (U3 PHARMA, published 2012)

Columns and labels:
[1] = target: T1, Human AXL-Fc (R&D Systems, #154-AL) (human, UniProt P30530 26-451); assay: ELISA on plate-adsorbed human AXL-Fc (1 ug/ml), 5-fold antibody dilution series, AP-conjugated goat anti-human IgG, fluorescent substrate (Example 14)
T1 construct: Bought reagent; also called human AXL-Fc fusion protein; human AXL-Fc protein; not shown: Fc part of the bought fusion protein
T1 sequence: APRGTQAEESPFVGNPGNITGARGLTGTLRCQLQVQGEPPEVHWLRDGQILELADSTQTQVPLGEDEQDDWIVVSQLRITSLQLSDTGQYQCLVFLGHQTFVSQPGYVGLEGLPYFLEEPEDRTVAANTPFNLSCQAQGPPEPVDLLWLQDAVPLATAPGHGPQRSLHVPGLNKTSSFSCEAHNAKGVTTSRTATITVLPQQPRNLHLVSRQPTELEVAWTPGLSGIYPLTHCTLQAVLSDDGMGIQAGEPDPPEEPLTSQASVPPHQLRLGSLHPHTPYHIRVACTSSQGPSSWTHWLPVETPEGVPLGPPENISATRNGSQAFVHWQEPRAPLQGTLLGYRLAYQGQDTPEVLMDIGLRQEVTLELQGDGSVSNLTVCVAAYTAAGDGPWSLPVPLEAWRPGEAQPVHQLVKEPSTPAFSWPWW

[2] = target: T2, human receptor tyrosine kinase AXL (human, UniProt P30530 26-894); assay: FACS Scatchard on human AXL overexpressing NIH3T3 cells; apparent KD (KDapp)
T2 construct: also called hAXL; human AXL on NIH3T3-AXL cI.7, RatI-AXL cI.2 and human cancer cell lines
T2 sequence: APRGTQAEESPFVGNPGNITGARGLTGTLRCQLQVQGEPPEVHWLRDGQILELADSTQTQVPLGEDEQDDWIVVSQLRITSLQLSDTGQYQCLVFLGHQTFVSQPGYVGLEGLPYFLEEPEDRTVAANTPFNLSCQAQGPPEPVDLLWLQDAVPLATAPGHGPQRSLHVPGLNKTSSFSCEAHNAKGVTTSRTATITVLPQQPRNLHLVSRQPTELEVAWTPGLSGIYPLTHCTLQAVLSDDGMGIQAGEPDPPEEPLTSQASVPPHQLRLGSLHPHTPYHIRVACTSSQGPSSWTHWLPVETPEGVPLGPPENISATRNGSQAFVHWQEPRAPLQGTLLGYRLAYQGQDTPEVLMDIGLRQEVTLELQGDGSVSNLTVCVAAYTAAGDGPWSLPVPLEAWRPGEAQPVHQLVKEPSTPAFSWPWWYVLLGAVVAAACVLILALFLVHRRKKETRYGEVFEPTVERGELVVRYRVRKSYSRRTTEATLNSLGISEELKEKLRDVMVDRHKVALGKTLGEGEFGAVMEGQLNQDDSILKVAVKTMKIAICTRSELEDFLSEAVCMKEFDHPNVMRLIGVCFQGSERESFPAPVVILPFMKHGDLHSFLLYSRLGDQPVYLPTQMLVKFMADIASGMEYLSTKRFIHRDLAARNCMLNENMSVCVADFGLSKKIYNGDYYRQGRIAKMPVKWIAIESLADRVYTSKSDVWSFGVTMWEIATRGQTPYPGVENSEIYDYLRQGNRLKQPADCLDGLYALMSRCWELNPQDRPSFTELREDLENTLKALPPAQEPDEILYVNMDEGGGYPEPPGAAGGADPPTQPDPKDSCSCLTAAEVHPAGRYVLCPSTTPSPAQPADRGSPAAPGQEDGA
Experimental: Human AXL overexpression NIH3T3 cells were harvested by incubation with 10 mM EDTA in PBS and resuspended at 6 million cells per ml in FACS buffer (PBS pH 7.4, 3% FCS, 0.1% NaN3). In a round-bottom microtiter plate, 100 μl of cell suspension were added to 100 μl of antibody solution containing antibodies 11B7, 11D5, ch11B7-IgG1, ch11B7-IgG2, ch11D5-IgG1 or ch11D5-IgG2 at concentrations between 40 and 0.002 μg/ml (266 and 0.01 nM) in FACS buffer. Antibody binding was allowed to proceed for 2 hours on ice. Then, cells were washed twice with 250 μl FACS buffer per well, and resuspended in 200 μl of secondary antibody (anti-rat-PE; Jackson) diluted 1:50 in FACS buffer. After 45 minutes of incubation, cells were again washed twice in FACS buffer and resuspended in […] PBS for FACS analysis. Analysis was carried out on a Beckman-Coulter FACS FC500. To determine the apparent affinity constant KDapp, mean fluorescence values were plotted against the ratio of mean fluorescence and the corresponding antibody concentration ([M]). The calculated KDapp resulted from the inverse slope of the straight line are listed below: […]

[3] = target: T1, Human AXL-Fc (R&D Systems, #154-AL); assay: ELISA on plate-adsorbed human AXL-Fc (1 ug/ml), 5-fold antibody dilution series, AP-conjugated goat anti-human IgG, fluorescent substrate (Example 13)
[4] = target: T1, Human AXL-Fc (R&D Systems, #154-AL); assay: ELISA on plate-adsorbed human AXL-Fc (1 ug/ml), 5-fold antibody dilution series, AP-conjugated goat anti-human IgG, fluorescent substrate (Example 23)

B1: h#11D5-T3 (antibody, human IgG1, kappa, V domains shown)
VH: EVQLQESGPGLVKPSQTLSLTCTVSGYSITSNYWGWIRKFPGNKMEWIGHITNSGNTTYNPSLKSRISISRDTSKNQFSLKLSSVTPADTAVYYCAKGAFDYWGQGTLVTVSS
VL: DIQMTQSPSSLSASVGDRVTITCRASQDIGNYLSWFQQKVGKSPRRMIYGAIKLAVGVPSRFSGSRSGSDYTLTISSLQPEDFAIYYCLQYIQFPLTFGSGTKLEIKR
notes: Humanized IgG1/kappa
EC50 (read off the curve) [1]: ~0.02 µg/mL

B2: chimeric anti-AXL antibody ch11D5-IgG1 (antibody, V domains shown)
VH: EVQLQESGPGLVKPSQSLSLTCSVTGYSITSNYWGWIRKFPGNKMEWIGHITNSGNTTYNPSLKSRISISRDTSRNQFFLQLNSVTTEDTATYYCAKGAFDYWGQGVMVTVSS
VL: DIQMTQSPSSMSTSLGDRVTITCRASQDIGNYLSWFQQKVGKSPRRMIYGAIKLAVGVPSRFSGSRSGSDYSLTISSLESEDMAIYYCLQYIQFPLTFGSGTKLELKR
notes: Rat/human chimera, human IgG1/kappa; also called chm11D5; human chimeric antibody
Kd [2]: 0.4 nM
EC50 (read off the curve) [1]: ~0.01 µg/mL

B3: rat anti-human AXL monoclonal antibody #11D5 (antibody, rat IgG2a, V domains shown)
VH: EVQLQESGPGLVKPSQSLSLTCSVTGYSITSNYWGWIRKFPGNKMEWIGHITNSGNTTYNPSLKSRISISRDTSRNQFFLQLNSVTTEDTATYYCAKGAFDYWGQGVMVTVSS
VL: DIQMTQSPSSMSTSLGDRVTITCRASQDIGNYLSWFQQKVGKSPRRMIYGAIKLAVGVPSRFSGSRSGSDYSLTISSLESEDMAIYYCLQYIQFPLTFGSGTKLELKR
notes: Rat IgG2a/kappa from hybridoma; also called III11D5
Kd [2]: 0.81 nM

B4: h#11B7-T3 (antibody, human IgG1, kappa, V domains shown)
VH: QVQLQESGPGLVKPSQTLSLTCAVSGYSITSNYWGWIRKPPGDGLEWMGYITYSGSTSYNPSLKSRISITRDTSKNQFSLKLSSVTAADTAVYYCAITTFYYWGQGTLVTVSS
VL: DIQMTQSPSSLSASVGDRVTITCRASQDIGNYLRWFQQKPGKAPKLMISGATNLAAGVPSRFSGSRSGSDYTLTISSLQPEDFATYYCLQSKESPWTFGGGTKVEIKR
notes: Humanized IgG1/kappa
EC50 (read off the curve) [3]: ~0.02 µg/mL

B5: h#11B7-T2 (antibody, human IgG1, kappa, V domains shown)
VH: QIQLQESGPGLVKPSQTLSLTCAVSGYSITSNYWGWIRQPPGKGLEWMGYITYSGSTSYNPSLKSRISISVDTSKNQFSLKLSSVTAADTAVYYCAITTFYYWGQGTLVTVSS
VL: DIQMTQSPSSLSASVGDRVTITCRASQDIGNYLRWFQQKPGKAPKLMISGATNLAAGVPSRFSGTGSGTDYTFTISSLQPEDFATYYCLQSKESPWTFGGGTKVEIKR
notes: Humanized IgG1/kappa
EC50 (read off the curve) [3]: ~0.03 µg/mL

B6: h#11B7-T31 (antibody, human IgG1, kappa)
heavy: not shown
light: DIQMTQSPSSLSASVGDRVTITCRASQDIGNYLRWFQQKPGKAPKLLISGATNLAAGVPSRFSGSGSGSDFTLTISSLQPEDFATYYCLQSKESPWTFGQGTKLEIKRTVAAPSVFIFPPSDEQLKSGTASVVCLLNNFYPREAKVQWKVDNALQSGNSQESVTEQDSKDSTYSLSSTLTLSKADYEKHKVYACEVTHQGLSSPVTKSFNRGEC
notes: Humanized IgG1/kappa
EC50 (read off the curve) [4]: ~0.04 µg/mL

B7: h#11B7-T6 (antibody, human IgG1, kappa)
heavy: not shown
light: DIQMTQSPSSLSASVGDRVTITCRASQDIGNYLRWFQQKPGKAPKLMISGATNLAAGVPSRFSGSGSGSDYTLTISSLQPEDFATYYCLQSKESPWTFGQGTKVEIKRTVAAPSVFIFPPSDEQLKSGTASVVCLLNNFYPREAKVQWKVDNALQSGNSQESVTEQDSKDSTYSLSSTLTLSKADYEKHKVYACEVTHQGLSSPVTKSFNRGEC
notes: Humanized IgG1/kappa
EC50 (read off the curve) [3]: ~0.02 µg/mL

B8: h#11B7-T30 (antibody, human IgG1, kappa)
heavy: not shown
light: DIQMTQSPSSLSASVGDRVTITCRASQDIGNYLRWFQQKPGKAPKLLISGATNLAAGVPSRFSGSGSGSDYTLTISSLQPEDFATYYCLQSKESPWTFGQGTKLEIKRTVAAPSVFIFPPSDEQLKSGTASVVCLLNNFYPREAKVQWKVDNALQSGNSQESVTEQDSKDSTYSLSSTLTLSKADYEKHKVYACEVTHQGLSSPVTKSFNRGEC
notes: Humanized IgG1/kappa
EC50 (read off the curve) [4]: ~0.04 µg/mL

B9: h#11B7-T4 (antibody, human IgG1, kappa)
heavy: not shown
light: DIQMTQSPSSLSASVGDRVTITCRASQDIGNYLRWYQQKPGKAPKLLISGATNLAAGVPSRFSGSGSGSDFTLTISSLQPEDFATYYCLQSKESPWTFGQGTKLEIKRTVAAPSVFIFPPSDEQLKSGTASVVCLLNNFYPREAKVQWKVDNALQSGNSQESVTEQDSKDSTYSLSSTLTLSKADYEKHKVYACEVTHQGLSSPVTKSFNRGEC
notes: Humanized IgG1/kappa
EC50 (read off the curve) [3]: ~0.06 µg/mL

B10: h#11B7-T29 (antibody, human IgG1, kappa)
heavy: not shown
light: DIQMTQSPSSLSASVGDRVTITCRASQDIGNYLRWFQQKPGKAPKLLISGATNLAAGVPSRFSGSGSGSDFTLTISSLQPEDFATYYCLQSKESPWTFGQGTKLEIKRTVAAPSVFIFPPSDEQLKSGTASVVCLLNNFYPREAKVQWKVDNALQSGNSQESVTEQDSKDSTYSLSSTLTLSKADYEKHKVYACEVTHQGLSSPVTKSFNRGEC
notes: Humanized IgG1/kappa
EC50 (read off the curve) [4]: ~0.04 µg/mL

B11: h#11B7-T5 (antibody, human IgG1, kappa)
heavy: not shown
light: DIQMTQSPSSLSASVGDRVTITCRASQDIGNYLRWFQQKPGKAPKLMISGATNLAAGVPSRFSGSGSGSDYTLTISSLQPEDFATYYCLQSKESPWTFGQGTKLEIKRTVAAPSVFIFPPSDEQLKSGTASVVCLLNNFYPREAKVQWKVDNALQSGNSQESVTEQDSKDSTYSLSSTLTLSKADYEKHKVYACEVTHQGLSSPVTKSFNRGEC
notes: Humanized IgG1/kappa
EC50 (read off the curve) [3]: ~0.02 µg/mL

B12: h#11B7-T28 (antibody, human IgG1, kappa)
heavy: not shown
light: DIQMTQSPSSLSASVGDRVTITCRASQDIGNYLRWFQQKPGKAPKLLISGATNLAAGVPSRFSGSGSGSDYTLTISSLQPEDFATYYCLQSKESPWTFGQGTKLEIKRTVAAPSVFIFPPSDEQLKSGTASVVCLLNNFYPREAKVQWKVDNALQSGNSQESVTEQDSKDSTYSLSSTLTLSKADYEKHKVYACEVTHQGLSSPVTKSFNRGEC
notes: Humanized IgG1/kappa
EC50 (read off the curve) [4]: ~0.04 µg/mL

B13: h#11D5-T4 (antibody, human IgG1, kappa, V domains shown)
VH: QVQLQQWGAGLLKPSETLSLTCTVSGYSITSNYWGWIRQPPGKGLEWIGHITNSGNTTYNPSLKSRVTISRDTSKNQFSLKLSSVTAADTAVYYCAKGAFDYWGQGTLVTVSS
VL: DIQMTQSPSSLSASVGDRVTITCRASQDIGNYLSWYQQKPGKAPKRLIYGAIKLAVGVPSRFSGSGSGTEFTLTISSLQPEDFATYYCLQYIQFPLTFGGGTKVEIKR
notes: Humanized IgG1/kappa
EC50 (read off the curve) [1]: ~0.01 µg/mL

B14: h#11D5-T6 (antibody, human IgG1, kappa)
heavy: not shown
light: DIQMTQSPSSLSASVGDRVTITCRASQDIGNYLSWFQQKPGKAPRRMIYGAIKLAVGVPSRFSGSGSGTDYTLTISSLQPEDFATYYCLQYIQFPLTFGQGTKVEIKRTVAAPSVFIFPPSDEQLKSGTASVVCLLNNFYPREAKVQWKVDNALQSGNSQESVTEQDSKDSTYSLSSTLTLSKADYEKHKVYACEVTHQGLSSPVTKSFNRGEC
notes: Humanized IgG1/kappa
EC50 (read off the curve) [1]: ~0.01 µg/mL
